The target in test [1] is T1, human TrkB monomer (His ECD) (human, UniProt Q16620 32-430).
T1 construct: extracellular domain; amine-coupled to the chip
As to the kind of experiment: SPR (Biacore), TrkB His ECD monomer on chip, 37 C. Here is the method: (§1) TrkB monomers (H is ECD) of human, mouse, and rat were amine-coupled to the chip at levels of 2008, 1008, and 889RU respectively in an effort to give low capacity surfaces suitable for kinetic analysis. Fabs (C1, C2, A2, 4A6, and 4B12) were diluted to 100 nM (according to their labeled concentrations by NanoDrop, using 1AU=0.6 mg/mL) to give the top concentration of a 3 fold serial dilution. Samples were injected from low to high concentration as a titration series for 84 sec, allowing a 10 minute dissociation phase for the 100 nM sample. […] The full-length mouse anti-TrkB antibody 38B8-IgG was used as a (+) control to confirm that the chip was active.
(§2) The concentrations of the Fab proteins are determined by ELISA and/or SDS-PAGE electrophoresis using a Fab of known concentration (as determined by amino acid analysis) as a standard. Kinetic association rates (kₒₙ) and dissociation rates (koff) (generally measured at 25° C. or 37° C.) are obtained simultaneously by fitting the data to a 1:1 Langmuir binding model (Karlsson, R. Roos, H. Fagerstam, L. Petersson, B., 1994 Methods Enzymology 6:99-110) using the BIAevaluation program. Equilibrium dissociation constant (KD) values are calculated as koff/kₒₙ.
Background: Surface plasmon resonance follows binding to a sensor surface in real time, without labels.

The target of test [2] is T2, rat TrkB monomer (His ECD) (rat, UniProt Q63604 32-429).
T2 construct: extracellular domain; amine-coupled to the chip
As to the kind of experiment: SPR (Biacore), TrkB His ECD monomer on chip, 37 C. Here is the method:
as §1, §2

Test [3] has as its target T3, mouse TrkB monomer (His ECD) (mouse, UniProt P15209 32-429).
T3 construct: extracellular domain; amine-coupled to the chip
As to the kind of experiment: SPR (Biacore), TrkB His ECD monomer on chip, 37 C. Here is the method: as §1, §2

The target in test [4] is T4, TrkB (Homo sapiens (Human), UniProt Q16620 32-430). As to the kind of experiment: koff of Fab at 37 C; T1/2=Log2/koff. In short, it runs like this:
(§3)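 Monovalent Fab fragments were tested at 37° C by surface plasmon resonance on a Biacore instrument, against TrkB extracellular-domain monomer amine-coupled to the chip at low capacity. Fabs were injected low to high as a 3-fold serial dilution from 100 nM for 84 sec, with a 10 minute dissociation after the top sample. The dissociation half-life was calculated from koff, which was fitted to a Langmuir binding model in BIAevaluation. The formula used was T1/2 = Log 2/koff.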

For test [5], the target named is T1, human TrkB monomer (His ECD). Nature of the test: Biacore, 37 C. The gist of the method:
as §3

The target is the same in test [6]. As to the kind of experiment: SPR (Biacore), Fab over amine-coupled TrkB His ECD monomer, 25 C. As to the method: as §1, §2
Test [7] concerns the target T2, rat TrkB monomer (His ECD). The description is as above. As to the method: as §1, §2
Test [8] deals with T3, mouse TrkB monomer (His ECD). Described as above. As to the method: as §1, §2
Test [9] has as its target T4, TrkB. As to the kind of experiment: koff of Fab at 25 C; T1/2=Log2/koff. In short, it runs like this:
(§4)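 Monovalent Fab fragments were tested at 25° C by surface plasmon resonance on a Biacore instrument, against TrkB extracellular-domain monomer amine-coupled to the chip at low capacity. Fabs were injected low to high as a 3-fold serial dilution from 100 nM for 84 sec, with a 10 minute dissociation after the top sample. The dissociation half-life was calculated from koff, which was fitted to a Langmuir binding model in BIAevaluation. The formula used was T1/2 = Log 2/koff.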

Test [10] has as its target T1, human TrkB monomer (His ECD). As to the kind of experiment: Biacore, 25 C. In short, it runs like this: as §4

Data on five molecules can be found in patent US20100196390A1 (RINAT NEUROSCIENCE, published 2010).

T2 sequence (Q63604 32-429): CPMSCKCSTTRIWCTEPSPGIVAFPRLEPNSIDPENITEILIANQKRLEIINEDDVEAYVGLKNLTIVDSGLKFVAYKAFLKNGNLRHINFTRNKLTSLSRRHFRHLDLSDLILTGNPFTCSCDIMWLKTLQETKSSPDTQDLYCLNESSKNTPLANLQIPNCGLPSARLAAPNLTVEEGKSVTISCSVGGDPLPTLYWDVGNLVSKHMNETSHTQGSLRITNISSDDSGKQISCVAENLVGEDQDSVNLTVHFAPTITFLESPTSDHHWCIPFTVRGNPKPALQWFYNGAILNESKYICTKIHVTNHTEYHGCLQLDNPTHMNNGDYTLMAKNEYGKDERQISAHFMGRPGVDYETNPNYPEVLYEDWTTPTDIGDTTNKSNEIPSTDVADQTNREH
T1 sequence (Q16620 32-430): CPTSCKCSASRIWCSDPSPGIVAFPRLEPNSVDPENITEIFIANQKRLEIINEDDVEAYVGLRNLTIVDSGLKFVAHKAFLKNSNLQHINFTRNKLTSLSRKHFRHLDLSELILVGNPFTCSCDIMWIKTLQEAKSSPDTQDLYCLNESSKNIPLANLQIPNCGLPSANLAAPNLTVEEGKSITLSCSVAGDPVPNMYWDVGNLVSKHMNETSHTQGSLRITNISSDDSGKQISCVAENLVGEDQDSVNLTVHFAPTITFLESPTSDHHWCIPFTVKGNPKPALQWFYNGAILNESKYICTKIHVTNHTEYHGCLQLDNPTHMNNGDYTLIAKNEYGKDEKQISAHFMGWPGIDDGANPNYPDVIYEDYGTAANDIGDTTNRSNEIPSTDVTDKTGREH
T4 sequence (Q16620 32-430 limits assumed): as the sequence (Q16620 32-430) above
T3 sequence (P15209 32-429): as the sequence (Q63604 32-429) above, with M3T, T9S, T10A, I32V, K63R, G84S, T153M, I185L, T394S counted along it

B1: RN1026A (Fab, V domains shown)
VH: QVQLVQSGAEVKKPGASVKVSCKASGYTFTNYDIIWVRQAPGQGLEWMGYINPYNRRREYNEKFKGRVTMTRDTSTSTVYMELSSLRSEDTAVYYCARLLKYRRFRYYAIDYWGQGTTVTVSS
VL: DIQMTQSPSSLSASVGDRVTITCRASENVYSNLAWYQQKPGKAPKLLIYAASNLQSGVPSRFSGSGSGTDFTFTISSLQPEDIATYYCQHFWGSPFTFGQGTKLEIK
notes: Fab
As to B1, the Kd in test [1] is 1.27 nM; in test [2] it was 4 nM; in test [3] it was 2.27 nM. In addition, the koff in [1] is 0.00255 s⁻¹; in test [2], 0.00924 s⁻¹; in [3], 0.00396 s⁻¹. The results for the kon in [1], in test [2] and in test [3] were 2e+06 M⁻¹ s⁻¹, 1.41e+06 M⁻¹ s⁻¹ and 1.75e+06 M⁻¹ s⁻¹, respectively. In addition, the values for the T1/2 (in the test with TrkB [4]; in test [5]) were 4.5 min and 4.53 min, respectively.

B2: 4A6 (Fab, V domains shown)
VH: QVQLVQSGAEVKKPGASVKVSCKASGYTFTNYDIIWVRQAPGQGLEWMGYINPYNRRREYNEKFKGRVTMTRDTSTSTVYMELSSLRSEDTAVYYCARLLKYRRFRYYAIDYWGQGTTVTVSS
VL: DIQMTQSPSSLSASVGDRVTITCHASENVYSNLAWYQQKPGKAPKLLIYAASNLQSGVPSRFSGSGSGTDYTFTISSLQPEDIATYYCQHFWGSPFTFGQGTKLEIK
notes: Fab
Regarding B2, the equilibrium dissociation constant (Kd) in test [1] is 0.17 nM; in test [3] it was 0.37 nM; in [6] it was 0.18 nM; in test [7], 0.27 nM; in test [8], 0.02 nM. Moreover, the koff was 0.000372 s⁻¹ in test [1]; 0.00066 s⁻¹ in test [3]; 0.000705 s⁻¹ in [6]; 0.000666 s⁻¹ in test [7]; 9.24e-05 s⁻¹ in test [8]. For the same molecule, the kon in [1] is 2.14e+06 M⁻¹ s⁻¹; in test [2] it was 1.36e+06 M⁻¹ s⁻¹; in test [3], 1.76e+06 M⁻¹ s⁻¹; in test [6], 3.89e+06 M⁻¹ s⁻¹; in test [7], 2.45e+06 M⁻¹ s⁻¹; in test [8], 4.35e+06 M⁻¹ s⁻¹. This molecule showed a T1/2 in the test with TrkB [9] of 13.2 min.

B3: A2 (Fab, V domains shown)
VH: QVQLVQSGAEVKKPGASVKVSCKASGYTFTNYDIIWVRQAPGQGLEWMGYINPYNDGTKYNEKFKGRVTMTRDTSTSTVYMELSSLRSEDTAVYYCARLLKYRRFRYYAIDYWGQGTTVTVSS
VL: DIQMTQSPSSLSASVGDRVTITCRASENVYSNLAWYQQKPGKAPKLLIYAASNLQSGVPSRFSGSGSGTDYTFTISSLQPEDIATYYCQHFWYSPWTFGQGTKLEIK
notes: Fab
In the case of B3, the Kd in test [6] turned out to be 1.08 nM; in test [7], 1.18 nM; in test [8] it was 0.51 nM. Also, the koff in test [6] worked out at 0.00145 s⁻¹; in [7], 0.00152 s⁻¹; in test [8] it was 0.000636 s⁻¹. Besides, the kon in [6] is 1.34e+06 M⁻¹ s⁻¹; in [7], 1.29e+06 M⁻¹ s⁻¹; in [8], 1.24e+06 M⁻¹ s⁻¹. Besides, the T1/2 with TrkB [9] came out at 6 min.

B4: C2 (Fab, V domains shown)
VH: QVQLVQSGAEVKKPGASVKVSCKASGYTFTNYDIIWVRQAPGQGLEWMGYINPYNDGTKYNEKFKGRVTMTRDTSTSTVYMELSSLRSEDTAVYYCARLLKYRRFRYYAIDYWGQGTTVTVSS
VL: DIQMTQSPSSLSASVGDRVTITCRTSENVYSNLAWYQQKPGKAPKLLIYAASNLQSGVPSRFSGSGSGTDYTFTISSLQPEDIATYYCQHFWGSPFTFGQGTKLEIK
notes: Fab
As for B4, the T1/2 (in [10]; in the test with TrkB [9]) was 2.9 min each time. Besides, the figures for the dissociation constant Kd in test [6], in test [7] and in test [8] were 2.54 nM, 2.29 nM and 1.44 nM, respectively. Further, the koff in [6] turned out to be 0.0014 s⁻¹; in [7], 0.00146 s⁻¹; in test [8], 0.000734 s⁻¹. For the same molecule, the kon in [6] is 552000 M⁻¹ s⁻¹; in test [7] it was 638000 M⁻¹ s⁻¹; in test [8] it was 510000 M⁻¹ s⁻¹.

B5: 4B12 (Fab, V domains shown)
VH: QVQLVQSGAEVKKPGASVKVSCKASGYTFTNYDIIWVRQAPGQGLEWMGYINPYNGRREYNEKFKGRVTMTRDTSTSTVYMELSSLRSEDTAVYYCARLLKYRRFRYYAIDYWGQGTTVTVSS
VL: DIQMTQSPSSLSASVGDRVTITCRASEPVYSNVAWYQQKPGKAPKLLIYAASNLQSGVPSRFSGSGSGTDYTFTISSLQPEDIATYYCQHFWGSPFTFGQGTKLEIK
notes: Fab
In test [6], B5 came in with a Kd of 0.21 nM, a koff of 0.000532 s⁻¹ and a kon of 2.5e+06 M⁻¹ s⁻¹. In [7], the Kd stood at 0.41 nM, the koff was 0.00081 s⁻¹ and the kon came out at 1.99e+06 M⁻¹ s⁻¹. In test [8], this molecule came in with a Kd of 0.06 nM, a koff of 0.000146 s⁻¹ and a kon of 2.38e+06 M⁻¹ s⁻¹. For the same molecule, in the test with TrkB [9], the T1/2 amounted to 12.8 min.

As usually defined, the Kd is the constant that tells how readily two partners part at equilibrium. Read a low Kd as higher affinity. In general, koff refers to the rate constant with which the complex falls apart. A low value points to a long-lived complex. As usually defined, the kon is a measure of how fast the partners come together. Low readings indicate slower complex formation, high ones faster complex formation.
